Drawing on CN101233156A (MEDAREX INC, dated 2008), this text covers Kd for 2 molecules.

This experiment concerns the target T1, 人CD 19 (细胞表面上表达: Raji、Daudi、ARH-77细胞, 人CD 19转染的CHO细胞) (human, UniProt P15391 20-556).
T1 construct: CD19 on the surface of B cell tumour lines (endogenous) or of CHO cells transfected with full-length cDNA of the transmembrane form; it is not tied word for word to the cells used; also called CHO-CD 19; CD 19-CHO
T1 sequence: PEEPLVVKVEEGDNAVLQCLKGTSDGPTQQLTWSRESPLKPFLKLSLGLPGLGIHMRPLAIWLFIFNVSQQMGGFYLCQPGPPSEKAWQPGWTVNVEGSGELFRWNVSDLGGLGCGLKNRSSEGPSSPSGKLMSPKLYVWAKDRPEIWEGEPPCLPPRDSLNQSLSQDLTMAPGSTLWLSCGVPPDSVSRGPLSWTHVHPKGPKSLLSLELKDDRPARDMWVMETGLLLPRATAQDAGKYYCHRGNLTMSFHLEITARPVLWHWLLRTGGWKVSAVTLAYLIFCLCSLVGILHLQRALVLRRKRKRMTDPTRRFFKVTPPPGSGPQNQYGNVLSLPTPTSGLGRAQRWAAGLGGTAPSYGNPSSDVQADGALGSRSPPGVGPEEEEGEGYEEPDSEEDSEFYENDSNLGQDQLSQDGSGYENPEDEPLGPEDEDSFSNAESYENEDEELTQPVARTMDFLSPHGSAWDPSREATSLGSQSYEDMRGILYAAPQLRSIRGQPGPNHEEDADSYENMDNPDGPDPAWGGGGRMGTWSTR
Kind of experiment: Scatchard analysis, 125I-labelled antibody on Raji cells.

B1: 抗CD 19人单克隆抗体47G4 (antibody, V domains shown)
VH: QVQLVQSGAEVKKPGSSVKVSCKDSGGTFSSYAISWVRQAPGQGLEWMGGIIPIFGTTNYAQQFQGRVTITADESTSTAYMELSSLRSEDTAVYYCAREAVAADWLDPWGQGTLVTVSS
VL: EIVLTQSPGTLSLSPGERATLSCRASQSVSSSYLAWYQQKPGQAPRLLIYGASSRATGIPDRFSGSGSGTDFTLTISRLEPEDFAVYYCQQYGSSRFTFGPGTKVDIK
notes: 125I-labelled in the Scatchard assay; also called HuMAb 47G4; CD 19 HuMab 47G4
For orientation: Kd means the free concentration of one partner at which half of the binding sites on the other are occupied at equilibrium, for simple one-to-one binding. Low readings indicate higher affinity, high ones lower affinity. Consider B1, for which the Kd is ~12 nM.

B2: 抗CD 19人单克隆抗体21D4 (antibody, V domains shown)
VH: EVQLVQSGAEVKKPGESLKISCKGSGYSFSSSWIGWVRQMPGKGLEWMGIIYPDDSDTRYSPSFQGQVTISADKSIRTAYLQWSSLKASDTAMYYCARHVTMIWGVIIDFWGQGTLVTVSS
VL: AIQLTQSPSSLSASVGDRVTITCRASQGISSALAWYQQKPGKAPKLLIYDASSLESGVPSRFSGSGSGTDFTLTISSLQPEDFATYYCQQFNSYPYTFGQGTKLEIK
notes: Human monoclonal antibody from KM mouse hybridoma; also called HuMAb 21D4; HuMab 21D4
Take B2: the Kd is ~2.14 nM.
